The target in experiment [1] is T1, A1PI (Homo sapiens, UniProt P01009).
T1 construct: Human plasma is currently the only approved source of therapeutic AlPI
Nature of the experiment: A1PI binding on peptide-resin column, injection of 1 mg A1PI in equilibration buffer. Conditions: 1 mg A1PI. Put shortly: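 Peptides synthesized on A-Totda-Toyopearl chelate resin (0.1 mmole/g) packed in 0.4×5 cm columns; 1 mg A1PI injected in equilibration buffer at 4 °C or 20 °C, 865 or 523 μl/min. Flowthrough, 1M/3M NaCl washes and 2% acetic acid eluate quantified by A280 or immunonephelometry as percent of total eluted.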

The target of experiment [2] is T1, A1PI. Nature of the experiment: Purification of A1PI from Effluent II+III on peptide column, A1PI mass balance. The experiment is classed as binding. Conditions: 1 ml Eff. II+III, 4° C.; for Mass A1PI per Eluate Fraction, 1M NaCl / Mass A1PI per Eluate Fraction, 2% Acetic Acid / Mass A1PI per Eluate Fraction, Flowthrough: * Below detection limit; for Percent Eluted by Fraction, 1M NaCl / Percent Eluted by Fraction, 2% Acetic Acid / Percent Eluted by Fraction, Flowthrough: A1PI. The protocol: Sequences 1-11 and 15 were assayed with Effluent II+III (Eff. II+III). Eff. II+III is a process intermediate in the Cohn plasma fractionation process. The feed stream contains 20% (by volume) ethanol, 20-25 mg/ml hSA and approximately 1 mg/ml AlPI. The stream also contains other proteins including anti-thrombin III (AT3), immunoglobin G (IgG), immunoglobin A (IgA), apolipoprotein alpha-1 (Apo A-1), transferrin (Trf), haptoglobin (Hpt), and alpha-1 acid glycoprotein (AAG) at concentrations ranging from 0.1-1 mg/ml.
The columns were assayed using the same technique as the hSA+AlPI experiments, allowing for a 10 minute residence time followed by a constant flow rate of 865 μl/min with step elutions of 1M NaCl, 3M NaCl, and 2% acetic acid. All experiments were conducted at 4° C. The mass balances for the injection of 1 ml Eff. […] The AlPI was enriched from 3% of the total protein in the feed to upwards of 50% in the acid eluate.

T1 sequence (P01009 25-418): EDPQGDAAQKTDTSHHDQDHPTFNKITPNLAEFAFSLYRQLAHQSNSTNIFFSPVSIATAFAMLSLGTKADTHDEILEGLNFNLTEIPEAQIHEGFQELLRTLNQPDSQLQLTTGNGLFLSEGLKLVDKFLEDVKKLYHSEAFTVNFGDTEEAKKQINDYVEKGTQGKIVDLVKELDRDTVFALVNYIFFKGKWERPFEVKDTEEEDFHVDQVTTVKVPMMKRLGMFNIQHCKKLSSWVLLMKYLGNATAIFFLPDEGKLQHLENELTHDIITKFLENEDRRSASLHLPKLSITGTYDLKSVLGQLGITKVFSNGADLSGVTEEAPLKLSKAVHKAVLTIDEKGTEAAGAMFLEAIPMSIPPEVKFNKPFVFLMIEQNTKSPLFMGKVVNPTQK

As to “S I F L V R: point mutation of VIFLVR, position 1 (SIFLVR)”, in the experiment with A1PI [1] (VIFLVR point mutations, 4° C.), the “% of Total A1PI Eluted by Fraction (Based on Absorbance at 280 nm), 1M NaCl” value (shortened to “% of Total A1PI Eluted by Fraction … 1M NaCl”) stood at 7%; the “% of Total A1PI Eluted by Fraction (Based on Absorbance at 280 nm), 2% Acetic Acid” value is given as 93%; the “% of Total A1PI Eluted by Fraction (Based on Absorbance at 280 nm), Flowthrough” value (“% of Total A1PI Eluted by Fraction … Flowthrough” below) came to 0%. For the same substance, in the experiment with A1PI [1] (VIFLVR point mutations, 20° C.), the “% of Total A1PI Eluted by Fraction … 1M NaCl” value is listed as 6%; the “% of Total A1PI Eluted by Fraction (Based on Absorbance at 280 nm), 2% Acetic Acid” value is recorded as 81%; the “% of Total A1PI Eluted by Fraction … Flowthrough” value is given as 13%. Besides, in the experiment with A1PI [2] (Table 13), the “Mass A1PI per Eluate Fraction, 1M NaCl” value worked out at 0.04 mg; the “Mass A1PI per Eluate Fraction, 2% Acetic Acid” value is 0.52 mg; the “Mass A1PI per Eluate Fraction, Flowthrough” value came to 0.61 mg; the “Percent Eluted by Fraction, 1M NaCl” value came out at 3%. Also, in the experiment with A1PI [2] (Table 13), the “Percent Eluted by Fraction, 2% Acetic Acid” value is 44% and the “Percent Eluted by Fraction, Flowthrough” value is 52%.

Turning to “V I A L V R: VIWLVR with Trp at position 3 replaced by Ala (VIALVR)”, in the experiment with A1PI [1] (Trp position mutations, 4° C.), the “% of Total A1PI Eluted by Fraction … 1M NaCl” value is given as 92%; the “% of Total A1PI Eluted by Fraction (Based on Absorbance at 280 nm), 2% Acetic Acid” value is reported as 8%; the “% of Total A1PI Eluted by Fraction … Flowthrough” value is reported as 0%. For the same substance, in the experiment with A1PI [1] (Trp position mutations, 20° C.), the “% of Total A1PI Eluted by Fraction … 1M NaCl” value is 36%; the “% of Total A1PI Eluted by Fraction (Based on Absorbance at 280 nm), 2% Acetic Acid” value was determined as 53%; the “% of Total A1PI Eluted by Fraction … Flowthrough” value came out at 10%. Moreover, in the experiment with A1PI [2] (Table 11), the “Mass A1PI per Eluate Fraction, 1M NaCl” value is on record as 0.05 mg; the “Mass A1PI per Eluate Fraction, 2% Acetic Acid” value is reported as 0.35 mg; the “Mass A1PI per Eluate Fraction, Flowthrough” value is reported as 0.18 mg; the “Percent Eluted by Fraction, 1M NaCl” value is 8%. In the experiment with A1PI [2] (Table 11), the “Percent Eluted by Fraction, 2% Acetic Acid” value amounted to 61% and the “Percent Eluted by Fraction, Flowthrough” value amounted to 31%.

For the substance “V I L L V R: VIWLVR with Trp at position 3 replaced by Leu (VILLVR)”, in the experiment with A1PI [1] (Trp position mutations, 4° C.), the “% of Total A1PI Eluted by Fraction … 1M NaCl” value is given as 7%; the “% of Total A1PI Eluted by Fraction (Based on Absorbance at 280 nm), 2% Acetic Acid” value was found to be 93%; the “% of Total A1PI Eluted by Fraction … Flowthrough” value is listed as 0%. Also, in the experiment with A1PI [2] (Table 11), the “Mass A1PI per Eluate Fraction, 1M NaCl” value came to 0.07 mg; the “Mass A1PI per Eluate Fraction, 2% Acetic Acid” value is listed as 0.54 mg; the “Mass A1PI per Eluate Fraction, Flowthrough” value amounted to 0.42 mg; the “Percent Eluted by Fraction, 1M NaCl” value worked out at 7%. In addition, in the experiment with A1PI [2] (Table 11), the “Percent Eluted by Fraction, 2% Acetic Acid” value is reported as 52% and the “Percent Eluted by Fraction, Flowthrough” value is on record as 41%.

In the case of “V I N L V R: VIWLVR with Trp at position 3 replaced by Asn (VINLVR)”, in the experiment with A1PI [1] (Trp position mutations, 4° C.), the “% of Total A1PI Eluted by Fraction … 1M NaCl” value was determined as 8%; the “% of Total A1PI Eluted by Fraction (Based on Absorbance at 280 nm), 2% Acetic Acid” value is listed as 92%; the “% of Total A1PI Eluted by Fraction … Flowthrough” value is given as 0%. Further, in the experiment with A1PI [1] (Trp position mutations, 20° C.), the “% of Total A1PI Eluted by Fraction … 1M NaCl” value is on record as 7%; the “% of Total A1PI Eluted by Fraction (Based on Absorbance at 280 nm), 2% Acetic Acid” value is given as 93%; the “% of Total A1PI Eluted by Fraction … Flowthrough” value is given as 0%. Also, in the experiment with A1PI [2] (Table 11), the “Mass A1PI per Eluate Fraction, 2% Acetic Acid” value is recorded as 0.53 mg; the “Mass A1PI per Eluate Fraction, Flowthrough” value turned out to be 0.44 mg; the “Percent Eluted by Fraction, 1M NaCl” value is given as 0%; the “Percent Eluted by Fraction, 2% Acetic Acid” value turned out to be 55%. Further, the “Percent Eluted by Fraction, Flowthrough” value in the experiment with A1PI [2] (Table 11) is recorded as 45%.

“V I S L V R: VIWLVR with Trp at position 3 replaced by Ser (VISLVR)”: in the experiment with A1PI [1] (Trp position mutations, 4° C.), the “% of Total A1PI Eluted by Fraction … 1M NaCl” value is given as 100%; the “% of Total A1PI Eluted by Fraction (Based on Absorbance at 280 nm), 2% Acetic Acid” value is 0%; the “% of Total A1PI Eluted by Fraction … Flowthrough” value is 0%. For the same substance, in the experiment with A1PI [1] (Trp position mutations, 20° C.), the “% of Total A1PI Eluted by Fraction … 1M NaCl” value is 75%; the “% of Total A1PI Eluted by Fraction (Based on Absorbance at 280 nm), 2% Acetic Acid” value was found to be 14%; the “% of Total A1PI Eluted by Fraction … Flowthrough” value amounted to 11%. In addition, in the experiment with A1PI [2] (Table 11), the “Mass A1PI per Eluate Fraction, 1M NaCl” value is 0.14 mg; the “Mass A1PI per Eluate Fraction, 2% Acetic Acid” value came to 0.26 mg; the “Mass A1PI per Eluate Fraction, Flowthrough” value is 0.14 mg; the “Percent Eluted by Fraction, 1M NaCl” value was determined as 26%. In the experiment with A1PI [2] (Table 11), the “Percent Eluted by Fraction, 2% Acetic Acid” value is recorded as 49% and the “Percent Eluted by Fraction, Flowthrough” value stood at 25%.

The values above are taken from patent US5985836A, “Alpha-1 proteinase inhibitor binding peptides” (Bayer Corporation, priority 1998, dated 1999).
